Biological target: GLP-1 receptor (GLP-1R) on CHO DG44 2-A4-2-A8 cells
Test: cell-based or functional assay

- EC50 (CRE-luciferase reporter, test NO. 1): 0.75 nM
- EC50 (CRE-luciferase reporter, test NO. 2): 0.368 nM
- EC50 (CRE-luciferase reporter, test NO. 3): 0.364 nM
Substance: GLP-1 (7-37) (Val^8-GLP-1 (7-37)) (from UniProt P01275 27-57) (peptide)
